The text below walks through data of patent US20240018502A1.

To fix the notation:
B1: MTSP-1 H40R/I41H/Y60gF/F97D/F99L/C122S/Q175K/Q192G/D217R/K224Q (enzyme)
chain: VVGGTDADEGEWPWQVSLHALGQGRHCGASLISPNWLVSAAHCYIDDRGFRFSDPTQWTAFLGLHDQSQRSAPGVQERRLKRIISHPFFNDDTLDYDIALLELEKPAEYSSMVRPISLPDASHVFPAGKAIWVTGWGHTQYGGTGALILQKGEIRVINQTTCENLLPQKITPRMMCVGFLSGGVDSCGGDSGGPLSSVEADGRIFQAGVVSWGRGCAQRNQPGVYTRLPLFRDWIKENTGV
B2: MTSP-1 H40R/I41H/F97D/F99L/C122S/G151N/Q192H/D217K/K224A (enzyme)
chain: B1 chain with F52Y, G145N, K169Q, G188H, R214K, Q221A
B3: MTSP-1 I41R/F97W/F99L/C122S/G151N/Q192G (enzyme)
chain: B1 chain with R25H, H26R, F52Y, D92W, G145N, K169Q, R214D, Q221K
B4: MTSP-1 H40R/I41H/F97D/F99L/Q175R/Q192G/D217E/K224R (enzyme)
chain: B1 chain with F52Y, S117C, K169R, R214E, Q221R
B5: MTSP-1 Q38E/H40R/I41H/F97D/F99L/C122S/Q192G (enzyme)
chain: B1 chain with Q23E, F52Y, K169Q, R214D, Q221K
B6: MTSP-1 H40R/I41H/F97D/F99L/C122S/G151N/Q192N/D217L/K224R (enzyme)
chain: B1 chain with F52Y, G145N, K169Q, G188N, R214L, Q221R
B7: MTSP-1 I41R/F97T/ins97aE/T98G/F99L/C122S/G151N/Q175S/Q192E (enzyme)
chain: VVGGTDADEGEWPWQVSLHALGQGHRCGASLISPNWLVSAAHCYIDDRGFRYSDPTQWTAFLGLHDQSQRSAPGVQERRLKRIISHPFFNDTEGLDYDIALLELEKPAEYSSMVRPISLPDASHVFPAGKAIWVTGWGHTQYGGTNALILQKGEIRVINQTTCENLLPQSITPRMMCVGFLSGGVDSCEGDSGGPLSSVEADGRIFQAGVVSWGDGCAQRNKPGVYTRLPLFRDWIKENTGV
B8: MTSP-1 I41R/F97T/ins97aE/T98G/F99L/C122S/G151N/Q175I/Q192E (enzyme)
chain: B7 chain with S170I
B9: MTSP-1 ins97aA/F97G/T98N/F99L/C122S/Q175M/Q192T/K224A (enzyme)
chain: B7 chain with R26I, T92G, E93A, G94N, N146G, S170M, E189T, K222A
B10: MTSP-1 I41D/ins97aE/F97T/T98G/F99L/C122S/G151N/Q175L/Q192E (enzyme)
chain: B7 chain with R26D, S170L
B11: MTSP-1 ins97aE/F97Y/T98S/F99L/C122S/Q192T/D217Q/K224R (enzyme)
chain: B7 chain with R26I, T92Y, G94S, N146G, S170Q, E189T, D215Q, K222R
B12: MTSP-1 I41R/Y59F/G60dS/R84H/ins97aE/F97T/T98G/F99L/C122S/Q175L/Q192E/V212I (enzyme)
chain: B7 chain with Y44F, G49S, R79H, N146G, S170L, V210I
B13: MTSP-1 ins97aD/F97G/T98N/F99L/C122S/Q192E/D217Y/K224R (enzyme)
chain: B7 chain with R26I, T92G, E93D, G94N, N146G, S170Q, D215Y, K222R
B14: MTSP-1 S90T/D96A/ins97aE/F97T/T98G/F99L/C122S/Q175L/Q192D (enzyme)
chain: B7 chain with R26I, S85T, D91A, N146G, S170L, E189D
B15: MTSP-1 I41R/ins97aE/F97T/T98G/F99L/C122S/G151N/Q175S/Q192D (enzyme)
chain: B7 chain with E189D
B16: MTSP-1 D96V/ins97aE/F97T/T98G/F99L/C122S/Q175L/Q192D (enzyme)
chain: B7 chain with R26I, D91V, N146G, S170L, E189D
B17: MTSP-1 I41R/Y59F/ins97aE/F97T/T98G/F99L/C122S/Q175L/Q192D (enzyme)
chain: B7 chain with Y44F, N146G, S170L, E189D
B18: MTSP-1 F97Q/ins97aT/T98M/C122S/Q192E/D217R/K224L (enzyme)
chain: B7 chain with R26I, T92Q, E93T, G94M, L95F, N146G, S170Q, D215R, K222L
B19: MTSP-1 I41R/F97T/ins97aE/T98G/F99L/C122S/G151N/Q175I/Q192D (enzyme)
chain: B7 chain with S170I, E189D
B20: MTSP-1 F97M/ins97aD/T98D/F99L/C122S/Q192T (enzyme)
chain: B7 chain with R26I, T92M, E93D, G94D, N146G, S170Q, E189T
B21: MTSP-1 I41R/ins97aE/F97T/T98G/F99L/C122S/G151S/Q175L/Q192E (enzyme)
chain: B7 chain with N146S, S170L
B22: MTSP-1 F97D/ins97aV/T98P/F99L/C122S/G151N/Q192G (enzyme)
chain: B7 chain with R26I, T92D, E93V, G94P, S170Q, E189G
B23: MTSP-1 ins97aV/F97D/T98P/F99L/C122S/Q192G (enzyme)
chain: B7 chain with R26I, T92D, E93V, G94P, N146G, S170Q, E189G
B24: MTSP-1 I41R/ins97aV/F97D/T98P/F99L/C122S/G151N/Q192G (enzyme)
chain: B7 chain with T92D, E93V, G94P, S170Q, E189G
B25: MTSP-1 I41R/F97T/ins97aE/T98G/F99L/C122S/G151D/Q175I/Q192E (enzyme)
chain: B7 chain with N146D, S170I
B26: MTSP-1 ins97aN/F97H/T98D/F99L/C122S/Q192E/D217Q/K224S (enzyme)
chain: B7 chain with R26I, T92H, E93N, G94D, N146G, S170Q, D215Q, K222S
B27: MTSP-1 ins97aE/F97T/T98G/F99L/C122S/Q175L/Q192E/Q209L (enzyme)
chain: B7 chain with R26I, N146G, S170L, Q207L
B28: MTSP-1 Y59F/F97T/ins97aE/T98G/F99L/C122S/Q175L/Q192D (enzyme)
chain: B7 chain with R26I, Y44F, N146G, S170L, E189D
B29: MTSP-1 ins97aE/F97T/T98G/F99L/C122S/L153Q/Q175L/Q192D (enzyme)
chain: B7 chain with R26I, N146G, L148Q, S170L, E189D
B30: MTSP-1 Y59F/ins97aE/F97T/T98G/F99L/C122S/Q175L/Q192E (enzyme)
chain: B7 chain with R26I, Y44F, N146G, S170L
B31: MTSP-1 ins97aV/F97D/T98P/F99L/C122S/Q175L/Q192E (enzyme)
chain: B7 chain with R26I, T92D, E93V, G94P, N146G, S170L
B32: MTSP-1 I41D/ins97aE/F97T/T98G/F99L/C122S/Q175L/Q192E (enzyme)
chain: B7 chain with R26D, N146G, S170L
B33: MTSP-1 ins97aV/F97Q/T98P/F99L/C122S/Q175F/Q192D (enzyme)
chain: B7 chain with R26I, T92Q, E93V, G94P, N146G, S170F, E189D
B34: MTSP-1 ins97aE/F97T/T98G/F99L/C122S/I136M/L155M/N170D/Q175L/Q192E (enzyme)
chain: B7 chain with R26I, I132M, N146G, L150M, N165D, S170L
B35: MTSP-1 I41R/Y59F/ins97aE/F97T/T98G/F99L/C122S/L153Q/Q175L/Q192E (enzyme)
chain: B7 chain with Y44F, N146G, L148Q, S170L
B36: MTSP-1 F97N/ins97aT/T98Y/F99N/C122S (enzyme)
chain: B7 chain with R26I, T92N, E93T, G94Y, L95N, N146G, S170Q, E189Q
B37: MTSP-1 E24K/ins97aE/F97T/T98G/F99L/C122S/A152S/Q175L/Q192D (enzyme)
chain: B7 chain with E9K, R26I, N146G, A147S, S170L, E189D
B38: MTSP-1 ins97aD/F97T/T98S/F99L/C122S/Q192E/D217Y/K224R (enzyme)
chain: B7 chain with R26I, E93D, G94S, N146G, S170Q, D215Y, K222R
B39: MTSP-1 Y59F/D96V/ins97aE/F97T/T98G/F99L/C122S/Q175L/Q192E (enzyme)
chain: B7 chain with R26I, Y44F, D91V, N146G, S170L
B40: MTSP-1 ins97aD/F97Q/T98G/F99L/C122S/Q175L/Q192E/D217F/K224S (enzyme)
chain: B7 chain with R26I, T92Q, E93D, N146G, S170L, D215F, K222S
B41: MTSP-1 I41R/ins97aE/F97T/T98G/F99L/A112V/C122S/Q175L/Q192E (enzyme)
chain: B7 chain with A108V, N146G, S170L
B42: MTSP-1 Y59F/ins97aE/F97T/T98G/F99L/C122S/L153Q/Q175L/Q192E (enzyme)
chain: B7 chain with R26I, Y44F, N146G, L148Q, S170L
B43: MTSP-1 Y59F/G60dS/R84H/ins97aE/F97T/T98G/F99L/C122S/Q175L/Q192E/V212I (enzyme)
chain: B7 chain with R26I, Y44F, G49S, R79H, N146G, S170L, V210I
B44: MTSP-1 ins97aG/F97N/T98D/F99L/C122S/Q192E/D217H/K224A (enzyme)
chain: B7 chain with R26I, T92N, E93G, G94D, N146G, S170Q, D215H, K222A
B45: MTSP-1 I41R/ins97aE/F97T/T98G/F99L/C122S/G151D/Q175I/Q192D (enzyme)
chain: B7 chain with N146D, S170I, E189D

Where a chain is given by its changes, count along the chain named. Numbers in names are those of the source.

In the assay the target is plasma purified human complement protein C3 (human) (UniProt P01024). Briefly: cell-based or functional assay.
Chain of plasma purified human complement protein C3 (human) (P01024 23-667, chain 1 of 2): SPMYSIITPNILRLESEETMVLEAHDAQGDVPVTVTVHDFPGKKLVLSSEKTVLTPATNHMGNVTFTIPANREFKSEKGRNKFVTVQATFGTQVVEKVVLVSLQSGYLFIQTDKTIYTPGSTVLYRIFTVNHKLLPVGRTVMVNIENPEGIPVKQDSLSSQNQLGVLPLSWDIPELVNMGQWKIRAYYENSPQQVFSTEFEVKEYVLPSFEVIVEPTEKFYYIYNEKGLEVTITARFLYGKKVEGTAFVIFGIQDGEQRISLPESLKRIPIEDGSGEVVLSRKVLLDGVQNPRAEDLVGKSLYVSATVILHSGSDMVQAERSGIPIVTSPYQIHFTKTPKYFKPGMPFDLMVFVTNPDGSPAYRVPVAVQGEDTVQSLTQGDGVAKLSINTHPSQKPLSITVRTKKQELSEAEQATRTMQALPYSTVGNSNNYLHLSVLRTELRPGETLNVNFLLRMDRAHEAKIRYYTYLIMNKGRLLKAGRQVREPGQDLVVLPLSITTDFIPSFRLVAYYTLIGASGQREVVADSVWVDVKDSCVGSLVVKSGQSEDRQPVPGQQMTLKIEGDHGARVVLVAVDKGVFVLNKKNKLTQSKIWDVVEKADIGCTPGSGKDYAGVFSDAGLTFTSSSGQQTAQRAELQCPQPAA
Chain of plasma purified human complement protein C3 (human) (P01024 672-1663, chain 2 of 2): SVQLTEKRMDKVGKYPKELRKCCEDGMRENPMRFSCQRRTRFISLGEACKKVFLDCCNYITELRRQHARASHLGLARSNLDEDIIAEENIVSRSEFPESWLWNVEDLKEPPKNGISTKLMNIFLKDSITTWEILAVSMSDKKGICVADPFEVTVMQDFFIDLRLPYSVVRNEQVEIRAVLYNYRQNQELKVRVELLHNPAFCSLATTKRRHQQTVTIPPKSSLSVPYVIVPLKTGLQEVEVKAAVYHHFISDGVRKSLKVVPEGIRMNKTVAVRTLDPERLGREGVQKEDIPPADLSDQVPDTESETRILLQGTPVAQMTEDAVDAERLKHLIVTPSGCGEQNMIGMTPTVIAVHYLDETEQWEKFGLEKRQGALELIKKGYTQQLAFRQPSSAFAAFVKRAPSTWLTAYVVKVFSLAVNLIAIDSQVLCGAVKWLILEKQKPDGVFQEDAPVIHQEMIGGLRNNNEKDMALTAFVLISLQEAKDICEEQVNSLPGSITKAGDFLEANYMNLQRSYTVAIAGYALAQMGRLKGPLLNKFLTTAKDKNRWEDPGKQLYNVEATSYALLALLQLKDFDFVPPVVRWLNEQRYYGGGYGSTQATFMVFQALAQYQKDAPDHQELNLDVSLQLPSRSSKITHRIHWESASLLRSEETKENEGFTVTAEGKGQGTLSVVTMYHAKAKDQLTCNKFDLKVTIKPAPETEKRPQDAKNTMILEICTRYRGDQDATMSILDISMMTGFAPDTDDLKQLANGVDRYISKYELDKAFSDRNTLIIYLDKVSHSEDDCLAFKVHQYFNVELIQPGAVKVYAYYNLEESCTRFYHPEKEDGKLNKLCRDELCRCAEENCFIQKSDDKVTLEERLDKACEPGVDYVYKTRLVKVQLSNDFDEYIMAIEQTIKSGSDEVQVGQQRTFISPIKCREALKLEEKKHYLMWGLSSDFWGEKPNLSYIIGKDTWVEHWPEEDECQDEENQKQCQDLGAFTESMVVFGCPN
B1 displayed an EC50 of hC3 cleavage of 0.0934 µM.

B2: the EC50 of hC3 cleavage stood at 0.137 µM.

Regarding B3, the EC50 of hC3 cleavage is 0.0973 µM.

Molecule B4 returned an EC50 of hC3 cleavage of 0.0219 µM.

As to B5, the EC50 of hC3 cleavage worked out at 0.0309 µM.

Molecule B6 returned an EC50 of hC3 cleavage of 0.346 µM.

B7 had an EC50 of hC3 cleavage of 0.267 µM.

On to B8, for which the EC50 of hC3 cleavage came out at 1.03 µM.

Regarding B9, the EC50 of hC3 cleavage turned out to be 0.2 µM.

Take B10: the EC50 of hC3 cleavage is 0.148 µM.

In turn, B11 gave an EC50 of hC3 cleavage of 0.249 µM.

As for B12, the EC50 of hC3 cleavage amounted to 0.143 µM.

B13: the EC50 of hC3 cleavage stood at 9.87 µM.

For the molecule B14, the EC50 of hC3 cleavage worked out at 0.28 µM.

Molecule B15 came in with an EC50 of hC3 cleavage of 2.08 µM.

B16 returned an EC50 of hC3 cleavage of 0.258 µM.

Regarding B17, the EC50 of hC3 cleavage came out at 0.288 µM.

On to B18, for which the EC50 of hC3 cleavage was determined as 2.45 µM.

On to B19, for which the EC50 of hC3 cleavage came to 8.37 µM.

In turn, B20 yielded an EC50 of hC3 cleavage of 0.151 µM.

Regarding B21, the EC50 of hC3 cleavage was 0.274 µM.

B22: the EC50 of hC3 cleavage stood at 0.087 µM.

Turning to B23, the EC50 of hC3 cleavage amounted to 0.0535 µM.

In turn, B24 had an EC50 of hC3 cleavage of 0.232 µM.

B25 returned an EC50 of hC3 cleavage of 2.07 µM.

Molecule B26 yielded an EC50 of hC3 cleavage of 2.75 µM.

Molecule B27 returned an EC50 of hC3 cleavage of 0.383 µM.

As for B28, the EC50 of hC3 cleavage worked out at 0.289 µM.

B29 showed an EC50 of hC3 cleavage of 0.332 µM.

As for B30, the EC50 of hC3 cleavage is 0.341 µM.

Turning to B31, the EC50 of hC3 cleavage was determined as 0.158 µM.

On to B32, for which the EC50 of hC3 cleavage amounted to 0.157 µM.

In turn, B33 registered an EC50 of hC3 cleavage of 0.248 µM.

In the case of B34, the EC50 of hC3 cleavage was found to be 0.429 µM.

B35 registered an EC50 of hC3 cleavage of 0.253 µM.

Molecule B36 came in with an EC50 of hC3 cleavage of 0.184 µM.

As to B37, the EC50 of hC3 cleavage worked out at 0.291 µM.

On to B38, for which the EC50 of hC3 cleavage stood at 5 µM.

Consider B39, for which the EC50 of hC3 cleavage was found to be 0.293 µM.

On to B40, for which the EC50 of hC3 cleavage is 5.56 µM.

In turn, B41 yielded an EC50 of hC3 cleavage of 0.288 µM.

Consider B42, for which the EC50 of hC3 cleavage amounted to 0.237 µM.

In turn, B43 yielded an EC50 of hC3 cleavage of 0.102 µM.

B44 yielded an EC50 of hC3 cleavage of 2.79 µM.

With B45, the EC50 of hC3 cleavage was 1.75 µM.
